Measurements published in the supplement of paper PMC11780869.

Tested on: Bacillus subtilis
Assay: cleaved RNA product abundance (RNA/gDNA barcode ratio) relative to median wild-type variant (ratio to wild type); higher = more accumulation of the downstream cleavage product
Conditions: experiment (reporter, strain, medium): exp 8a: truncated aprE reporter, strain BJT201 with 2% xylose (RNase J1 expressed); cleavage site: glnRA (positions -5 to +31 mutated)
In short: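 Oligos with a 9% error rate were used to build barcoded, mutagenized RNase Y cleavage-site windows within truncated aprE or tetM reporter mRNAs, which were integrated into the B. subtilis chromosome. Cultures were grown in LB at 37°C between OD600 0.0003 and 0.3. Cleaved RNA was gel-selected, reverse transcribed and barcode-sequenced, as were genomic DNA barcodes, and UMIs were collapsed. Cleaved product abundance is the scaled RNA:gDNA barcode ratio, with the median construct carrying the unmutated site as reference.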

Row | Sequence | cleaved RNA product abundance
1 | CGACATGTCCCGCTTCTTTCATTAATCCGTCAGCAAATGTTTTGCTATATACATTTACCTTTTAAGAGGAGGAAT | 0.398
2 | CGACATGTCCCGCTTCTTTCATTAATCCGTCAGCAACTATTTTGCTATATACATTTACCTTTTAAGAGGAGGAAT | 0.387
3 | CGACATGTCCCGCTTCTTTCATTAATCCGTCAGCAACTGTATTGCTATATACATTTACCTTTTAAGAGGAGGAAT | 0.214
4 | CGACATGTCCCGCTTCTTTCATTAATCCGTCAGCAACTGTTTAGCTATATACATTTACCTTTTAAGAGGAGGAAT | 0.305
5 | CGACATGTCCCGCTTCTTTCATTAATCCGTCAGCAACTGTTTTGCTATATACATTAACCTTTTAAGAGGAGGAAT | 0.528
6 | CGACATGTCCCGCTTCTTTCATTAATCCGTCAGCAACTGTTTTGCTATATACATTTAACTTTTAAGAGGAGGAAT | 0.483
7 | CGACATGTCCCGCTTCTTTCATTAATCCGTCAGCAACTGTTTTGCTATATACATTTACCATTTAAGAGGAGGAAT | 0.704
8 | CGACATGTCCCGCTTCTTTCATTAATCCGTCAGCAACTGTTTTGCTATATACATTTACCTTTTAAGAGGAGGAAT | 0.406
9 | CGACATGTCCCGCTTCTTTCATTAATCCGTCAGCAACTGTTTTGCTATATATATTTACCTTTTAAGAGGAGGAAT | 0.367
10 | CGACATGTCCCGCTTCTTTCATTAATCCGTCAGCAACTGTTTTGCTATATTCATTTACCTTTTAAGAGGAGGAAT | 0.112
11 | CGACATGTCCCGCTTCTTTCATTAATCCGTCAGCAACTGTTTTGTTATATACATTTACCTTTTAAGAGGAGGAAT | 0.485
12 | CGACATGTCCCGCTTCTTTCATTAATCCGTCAGCAACTTTTTTGCTATATACATTTACCTTTTAAGAGGAGGAAT | 0.621
13 | CGACATGTCCCGCTTCTTTCATTAATCCGTCCGCAACTGTTTTGCTATATACATTTACCTTTTAAGAGGAGGAAT | 0.264
14 | CGACATGTCCCGCTTCTTTCATTAATCCGTGAACAACTGTTTTGCTATATACATTTACCTTTTAAGAGGAGGAAT | 0.232
15 | CGACATGTCCCGCTTCTTTCATTAATCCGTGAGCAACTATTTTGCTATATACATTTACCTTTTAAGAGGAGGAAT | 0.988
16 | CGACATGTCCCGCTTCTTTCATTAATCCGTGAGCAACTGTTTAGCTATATACATTTACCTTTTAAGAGGAGGAAT | 0.335
17 | CGACATGTCCCGCTTCTTTCATTAATCCGTGAGCAACTGTTTTGATATATACATTTACCTTTTAAGAGGAGGAAT | 0.427
18 | CGACATGTCCCGCTTCTTTCATTAATCCGTGAGCAACTGTTTTGCTATACACATTTACCTTTTAAGAGGAGGAAT | 0.0879
19 | CGACATGTCCCGCTTCTTTCATTAATCCGTGAGCAACTGTTTTGCTATATAAATTTACCTTTTAAGAGGAGGAAT | 0.357
20 | CGACATGTCCCGCTTCTTTCATTAATCCGTGAGCAACTGTTTTGCTATATACATTTAACTTTTAAGAGGAGGAAT | 0.854
21 | CGACATGTCCCGCTTCTTTCATTAATCCGTGAGCAACTGTTTTGCTATATACATTTACCATTTAAGAGGAGGAAT | 0.655
22 | CGACATGTCCCGCTTCTTTCATTAATCCGTGAGCAACTGTTTTGCTATATACATTTACCTTTTAAGAGGAGGAAT | 0.549
23 | CGACATGTCCCGCTTCTTTCATTAATCCGTGAGCAACTGTTTTGCTATATACATTTACTTTTTAAGAGGAGGAAT | 0.477
24 | CGACATGTCCCGCTTCTTTCATTAATCCGTGAGCAACTGTTTTGCTATATACTTTTACCTTTTAAGAGGAGGAAT | 0.154
25 | CGACATGTCCCGCTTCTTTCATTAATCCGTGAGCAACTGTTTTGCTATATATATTTACCTTTTAAGAGGAGGAAT | 0.87

Row | Sequence | cleaved RNA product abundance
26 | CGACATGTCCCGCTTCTTTCATTAATCCGTGAGCAACTGTTTTGCTATATTCATTTACCTTTTAAGAGGAGGAAT | 0.177
27 | CGACATGTCCCGCTTCTTTCATTAATCCGTGAGCAACTGTTTTGCTTTATACATTTACCTTTTAAGAGGAGGAAT | 0.184
28 | CGACATGTCCCGCTTCTTTCATTAATCCGTGAGCAAGTGTTTTGCTATATACATTTACCTTTTAAGAGGAGGAAT | 0.375
29 | CGACATGTCCCGCTTCTTTCATTAATCCGTGAGCAGCTGTTTTGCTATATACATTTACCTTTTAAGAGGAGGAAT | 0.231
30 | CGACATGTCCCGCTTCTTTCATTAATCCGTGATCAACTGTTTTGCTATATACATTTACCTTTTAAGAGGAGGAAT | 0.346
31 | CGACATGTCCCGCTTCTTTCATTAATCCGTTAAAAACTGTTTTGCTATATACATTTACCTTTTAAGAGGAGGAAT | 0.292
32 | CGACATGTCCCGCTTCTTTCATTAATCCGTTAACAAATGTTTTGCTATATACATTTACCTTTTAAGAGGAGGAAT | 0.287
33 | CGACATGTCCCGCTTCTTTCATTAATCCGTTAACAACAGTTTTGCTATATACATTTACCTTTTAAGAGGAGGAAT | 0.183
34 | CGACATGTCCCGCTTCTTTCATTAATCCGTTAACAACTATTTTGCTATATACATTTACCTTTTAAGAGGAGGAAT | 0.275
35 | CGACATGTCCCGCTTCTTTCATTAATCCGTTAACAACTGATTTGCTATATACATTTACCTTTTAAGAGGAGGAAT | 0.248
36 | CGACATGTCCCGCTTCTTTCATTAATCCGTTAACAACTGTATTGCTATATACATTTACCTTTTAAGAGGAGGAAT | 0.316
37 | CGACATGTCCCGCTTCTTTCATTAATCCGTTAACAACTGTCTTGCTATATACATTTACCTTTTAAGAGGAGGAAT | 0.0713
38 | CGACATGTCCCGCTTCTTTCATTAATCCGTTAACAACTGTGTTGCTATATACATTTACCTTTTAAGAGGAGGAAT | 0.24
39 | CGACATGTCCCGCTTCTTTCATTAATCCGTTAACAACTGTTATGCTATATACATTTACCTTTTAAGAGGAGGAAT | 0.219
40 | CGACATGTCCCGCTTCTTTCATTAATCCGTTAACAACTGTTTGGCTATATACATTTACCTTTTAAGAGGAGGAAT | 0.159
41 | CGACATGTCCCGCTTCTTTCATTAATCCGTTAACAACTGTTTTACTATATACATTTACCTTTTAAGAGGAGGAAT | 0.222
42 | CGACATGTCCCGCTTCTTTCATTAATCCGTTAACAACTGTTTTCCTATATACATTTACCTTTTAAGAGGAGGAAT | 0.263
43 | CGACATGTCCCGCTTCTTTCATTAATCCGTTAACAACTGTTTTGATATATACATTTACCTTTTAAGAGGAGGAAT | 0.235
44 | CGACATGTCCCGCTTCTTTCATTAATCCGTTAACAACTGTTTTGCAATATACATTTACCTTTTAAGAGGAGGAAT | 0.185
45 | CGACATGTCCCGCTTCTTTCATTAATCCGTTAACAACTGTTTTGCCATATACATTTACCTTTTAAGAGGAGGAAT | 0.114
46 | CGACATGTCCCGCTTCTTTCATTAATCCGTTAACAACTGTTTTGCGATATACATTTACCTTTTAAGAGGAGGAAT | 0.215
47 | CGACATGTCCCGCTTCTTTCATTAATCCGTTAACAACTGTTTTGCTAAATACATTTACCTTTTAAGAGGAGGAAT | 0.202
48 | CGACATGTCCCGCTTCTTTCATTAATCCGTTAACAACTGTTTTGCTATAAACATTTACCTTTTAAGAGGAGGAAT | 0.207
49 | CGACATGTCCCGCTTCTTTCATTAATCCGTTAACAACTGTTTTGCTATACACATTTACCTTTTAAGAGGAGGAAT | 0.162
50 | CGACATGTCCCGCTTCTTTCATTAATCCGTTAACAACTGTTTTGCTATATAAATTTACCTTTTAAGAGGAGGAAT | 0.227
